Usually IC50 stands for the point on the concentration scale where inhibition reaches its midpoint.

This is an account of results in patent US20070020327A1.

For assay [1], the target named is HLA-A*0301 (purified HLA class I molecule) (human). Briefly: competition binding assay with purified HLA-A*0301; inhibition of 125I-labelled standard peptide 941.12 ([..], 11 nM), gel filtration.
Assay [2] has as its target HLA-A*0301 (human). Briefly: competition with 125I-labelled standard peptide for purified HLA, gel filtration. The settings on record: scale: ratio. In general terms: SEC sorts molecules by how far they enter the pores of the column.
Assay [3] addresses HLA-A*1101 (human). The description is as above. The settings on record: scale: ratio.
In assay [4] the target is HLA-A*0301 (human). The assay can be described thus: competition with 125I-labelled standard peptide for purified HLA-A*0301, gel filtration.
Assay [5] deals with HLA-A*1101 (human). Briefly: competition with 125I-labelled standard peptide for purified HLA-A*1101, gel filtration; ratio to the A*1101 standard peptide 940.06 [..] (6.0 nM).
Assay [6] addresses HLA-A*0201 (human). The assay can be described thus: inhibition of 125I probe peptide binding to purified HLA, gel filtration; ratio = IC50 standard/IC50 test. The settings on record: remark: other sources report otherwise.
Assay [7] deals with HLA-A*0202 (human). The assay is described as above. The settings on record: remark: other sources report otherwise.
The target of assay [8] is HLA-A*0201 (human). Briefly: competitive inhibition of 125I-labelled standard peptide binding to purified HLA, gel filtration; ratio = IC50 standard / IC50 test peptide.
The target of assay [9] is HLA-A*0203 (human). The description is as above.
The target in assay [10] is HLA-A*0206 (human). Described as above.
The target of assay [11] is HLA-A*0201 (human). The assay can be described thus: competition with 125I-labeled probe peptide for purified HLA, gel filtration.
Assay [12] concerns the target HLA-A*0202 (human). The assay is described as above.
In assay [13] the target is HLA-A*6802 (human). The description is as above.
Assay [14] concerns the target HLA-A*1101 (human). Briefly: competition with 125I-labelled standard peptide for purified HLA-A*1101, gel filtration; standard 940.06 [..] (6.0 nM).
Assay [15] deals with HLA-A*6802 (human). The assay can be described thus: competition with 125I standard peptide for purified HLA; gel filtration.
In assay [16] the target is HLA-A*0201 (human). Described as above.
Assay [17] addresses HLA-A*0202 (human). The assay is described as above.
The target of assay [18] is HLA-A*0203 (human). The description is as above.
For assay [19], the target named is HLA-A*0206 (human). The assay is described as above.
For assay [20], the target named is HLA-A*0202 (human). The assay can be described thus: competition for purified HLA with 125I-labelled standard peptide 941.01 [..] as competitor, gel filtration. The settings on record: remark: other sources report otherwise; scale: ratio.
The target of assay [21] is HLA-A*0201 (human). Briefly: inhibition of 125I-labelled probe peptide binding to purified HLA; gel filtration.
In assay [22] the target is HLA-A*0202 (human). Described as above.
Assay [23] deals with HLA-A*0203 (human). The assay is described as above.
Assay [24] deals with HLA-A*6802 (human). The description is as above.
Assay [25] deals with HLA-A*0206 (human). Described as above.
For assay [26], the target named is HLA-A*0203 (human). Briefly: competitive inhibition of 125I-labelled standard peptide binding to purified HLA.
The target in assay [27] is HLA-A*0201 (human). Briefly: competition with 125I-labelled standard peptide 941.01 for purified HLA-A*0201, gel filtration.
The target in assay [28] is HLA-A*0202 (human). The assay can be described thus: competition with 125I-labelled standard peptide 941.01 for purified HLA-A*0202, gel filtration.
For assay [29], the target named is HLA-A*0206 (human). The assay can be described thus: competition with 125I-labelled standard peptide 941.01 for purified HLA-A*0206, gel filtration.
The target of assay [30] is HLA-A*6802 (human). The assay can be described thus: competition with 125I-labelled standard peptide 1072.34 for purified HLA-A*6802, gel filtration.
In assay [31] the target is HLA-A*6802 (human). The assay can be described thus: inhibition of 125I probe peptide binding to purified HLA, gel filtration; ratio = IC50 standard/IC50 test. The settings on record: remark: other sources report otherwise.
Assay [32] deals with HLA-A*0203 (human). The assay can be described thus: competition with 125I-labelled standard peptide for purified HLA, gel filtration; ratio = IC50 standard / IC50 test peptide. The settings on record: remark: other sources report otherwise.
Assay [33] has as its target HLA-A*0206 (human). Described as above. The settings on record: remark: other sources report otherwise.
In assay [34] the target is HLA-A*0206 (human). Briefly: competition with 125I-labeled probe peptide for purified HLA, gel filtration. The settings on record: remark: other sources report otherwise.
For assay [35], the target named is HLA-A*0201 (human). The assay can be described thus: competitive inhibition of 125I-labelled standard peptide binding to purified HLA.
Assay [36] concerns the target HLA-A*0202 (human). The description is as above.
Assay [37] deals with HLA-A*0206 (human). Described as above.
Setting [38] is: remark: other sources report otherwise.

In the case of EIASKFSER (modifications not checked) [PSM peptide … (position 641, 9 amino acids)], in assay [1], the binding affinity ratio (IC50 of standard peptide / IC50 of test peptide) (ratio to standard peptide) was 0.0006.
SLYESWTKK (modifications not checked) [… (PSM, position 492)]: the figures for the binding affinity ratio in the assay with HLA-A*0301 (human) [2] and with HLA-A*1101 (human) [3] were 1 and 2, respectively. For the same molecule, the figures for the binding affinity ratio (IC50 of standard peptide / IC50 of test peptide) with HLA-A*0301 (human) [4] and with HLA-A*1101 (human) [5] were 1 and 2, respectively.
In the case of AAHCIRNKSVI (modifications not checked) [… (PSA, position 59)], the binding affinity ratio stood at 0.001 with HLA-A*0201 (human) [6] and 0.01 with HLA-A*0202 (human) [7].
Turning to VLGLPTQEPAL (modifications not checked) [… (Kallikrein, position 138)], the binding affinity ratio with HLA-A*0201 (human) [8] was -0.0001; in the assay with HLA-A*0203 (human) [9] it was 0.0003; in the assay with HLA-A*0206 (human) [10], 0.0003.
For the molecule LMYSLVHNL (modifications not checked) [Peptide 1126.14 … (PSM.469)], the IC50 with HLA-A*0201 (human) [11] came to 64 nM; with HLA-A*0202 (human) [12], 0.4 nM; with HLA-A*6802 (human) [13], 320 nM.
As for QDLFGIWSK (modifications not checked) [PAP 200 …], the binding affinity ratio (IC50 of standard peptide / IC50 of test peptide) with HLA-A*1101 (human) [14] was 0.0008.
With KVTEFMLCV (modifications not checked) [Peptide 1418.21 … (HuK2.191.V9)], in the assay with HLA-A*6802 (human) [15] (setting [38]), the IC50 was 6670 nM.
Regarding PSKAWGEVKR (modifications not checked) [PSM 721 …], in the assay with HLA-A*1101 (human) [14], the binding affinity ratio (IC50 of standard peptide / IC50 of test peptide) worked out at 0.0002.
Regarding LLSNDMCARV (modifications not checked) [Peptide 1418.53 … (HuK2.178.V10)], the IC50 with HLA-A*0201 (human) [16] (setting [38]) was 5.3 nM; with HLA-A*0202 (human) [17] (setting [38]), 0.7 nM; with HLA-A*0203 (human) [18] (setting [38]), 4.3 nM; in the assay with HLA-A*0206 (human) [19] (setting [38]), 10 nM; with HLA-A*6802 (human) [15] (setting [38]), 1700 nM.
Regarding IALSVGCTGA (modifications not checked) [… (Kallikrein position 8, 10-mer)], the binding affinity ratio with HLA-A*0202 (human) [20] came out at 0.05.
As to VLTAAHCL (modifications not checked) [VLTAAHCL (Kallikrein, position 60)], the binding affinity ratio was found to be 0.0002 with HLA-A*0201 (human) [8], 0.0001 with HLA-A*0203 (human) [9] and 0.0001 in the assay with HLA-A*0206 (human) [10].
Take LLWQPIPVHV (modifications not checked) [peptide 1419.69 (PAP.136.V10)]: the IC50 with HLA-A*0201 (human) [21] was found to be 25 nM; with HLA-A*0202 (human) [22], 1.8 nM; with HLA-A*0203 (human) [23] it was 17 nM; with HLA-A*6802 (human) [24], 60 nM.
With DTFPTDPIK (modifications not checked) [PAP peptide … (position 51, 9 amino acids)], in assay [1], the binding affinity ratio (IC50 of standard peptide / IC50 of test peptide) (ratio to standard peptide) was found to be 0.0001.
For TVSGLQMAV (modifications not checked) [peptide 60.0213 (PAP.292.V9)], the IC50 stood at 294 nM in the assay with HLA-A*0201 (human) [21]; 12 nM with HLA-A*0202 (human) [22]; 122 nM with HLA-A*0203 (human) [23]; 195 nM with HLA-A*0206 (human) [25]; 5.7 nM with HLA-A*6802 (human) [24].
As for MLLRLSEPAEV (modifications not checked) [Peptide 1389.12, … (PSA.118.V11)], the IC50 with HLA-A*0203 (human) [26] (setting [38]) is 115 nM.
With RLSEPAKI (modifications not checked) [RLSEPAKI (Kallikrein, position 125)], the binding affinity ratio (IC50 of standard peptide / IC50 of test peptide) in the assay with HLA-A*0201 (human) [27] was -0.0001; with HLA-A*0202 (human) [28] it was 0.0005; in the assay with HLA-A*0206 (human) [29], -0.0001; with HLA-A*6802 (human) [30], -0.0001.
Turning to LVCNGVLQGV (modifications not checked) [Peptide 1418.55 … (HuK2.217.V10)], the IC50 came to 10 nM with HLA-A*0201 (human) [16]; 2.9 nM with HLA-A*0202 (human) [17]; 12 nM with HLA-A*0203 (human) [18]; 5.6 nM with HLA-A*0206 (human) [19]; 3.5 nM in the assay with HLA-A*6802 (human) [15].
For the molecule SLLSLYGIH (modifications not checked) [… (PAP, position 242)], the binding affinity ratio (IC50 of standard peptide / IC50 of test peptide) stood at 0.0006 with HLA-A*0301 (human) [4] and 0.0002 with HLA-A*1101 (human) [5].
Consider RAVCGGVLVH (modifications not checked) [PSA 43 …], for which the binding affinity ratio (IC50 of standard peptide / IC50 of test peptide) with HLA-A*1101 (human) [14] (setting [38]) was 0.031.
For the molecule DVLLSYPNK (modifications not checked) [PSM peptide … (position 114, 9 amino acids)], the binding affinity ratio (IC50 of standard peptide / IC50 of test peptide) (ratio to standard peptide) in [1] is 0.0006.
Turning to ALSVGCTGA (modifications not checked) [… (Kallikrein, position 9)], the binding affinity ratio in the assay with HLA-A*6802 (human) [31] is -0.0001.
Turning to QVAVYSHGWA (modifications not checked) [Kallikrein (hK2) peptide …, position 39, 10 amino acids], the values for the binding affinity ratio (ratio to standard peptide) in the assay with HLA-A*0203 (human) [32] and with HLA-A*0206 (human) [33] were 0.02 and 0.0005, respectively.
Consider GTPEGDLVYV (modifications not checked) [Peptide 1418.29 … (PSM.168.T2)], for which the values for the IC50 with HLA-A*0201 (human) [11] (setting [38]), with HLA-A*0206 (human) [34] and with HLA-A*6802 (human) [13] (setting [38]) were 313 nM, 40 nM and 571 nM, respectively.
On to LLWQPIPVHV (modifications not checked) [Peptide 1419.69 … (PAP.136.V10)], for which the IC50 came to 25 nM in the assay with HLA-A*0201 (human) [16], 1.8 nM in the assay with HLA-A*0202 (human) [17], 17 nM with HLA-A*0203 (human) [18] and 60 nM in the assay with HLA-A*6802 (human) [15].
For the molecule GVSIWNPILV (modifications not checked) [peptide 63.0041 (PAP.128.V10)], the IC50 was 250 nM with HLA-A*0201 (human) [21] (setting [38]), 94 nM with HLA-A*0202 (human) [22] (setting [38]), 451 nM with HLA-A*0206 (human) [25] (setting [38]) and 2290 nM with HLA-A*6802 (human) [24] (setting [38]).
With FLTLSVTWIGV (modifications not checked) [Peptide 63.0186, … (PSA.3.V11)], the half-inhibitory concentration (IC50) amounted to 6.8 nM with HLA-A*0201 (human) [35], 3 nM in the assay with HLA-A*0202 (human) [36], 18 nM in the assay with HLA-A*0203 (human) [26] and 65 nM with HLA-A*0206 (human) [37].
